Assay results published in patent publication US20220251184A1 (Regeneron, published 2022).
Residue numbers refer to the chain shown, from its start. One block for each binder: values may come before it.

Assays:
Human BMP12/GDF7 = molecular target: T1, Human BMP12/GDF7 (human, UniProt Q7Z4P5 322-450, limits assumed); assay: BLI (Octet HTX), mAb captured on Protein A sensor, 100 nM ligand, 25 C
T1 sequence (looked up): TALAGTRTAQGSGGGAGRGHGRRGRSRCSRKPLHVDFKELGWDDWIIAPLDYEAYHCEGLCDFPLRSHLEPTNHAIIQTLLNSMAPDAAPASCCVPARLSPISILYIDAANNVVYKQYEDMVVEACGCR
Procedure: (§1) Binding cross-reactivity of anti-BMP6 monoclonal antibodies to BMP6 family members, (Human: BMP6, BMP5, BMP7, BMP8A, BMP9, BMP10, BMP12, BMP14, BMP3b, Activin A, and GDF3 and mouse: BMP6 and GDF6) was determined using a real-time Bio-Layer Interferometry (BLI) biosensor using Octet HTX instrument. All binding studies were performed in 10 mM HEPES, 150 mM NaCl, 3 mM EDTA, 1 mg/mL BSA, 50 μg/mL Heparin, and 0.05% v/v Surfactant Tween-20, pH 7.4 (HBS-EBHT) buffer at 25° C. with the plate shaking at a speed of 1000 rpm. To assess binding cross-reactivity, Protein A coated Octet biosensor (Pall ForteBio Corp., #18-5010) was first dipped in wells containing […] of anti-BMP6 monoclonal antibodies for 4 minutes followed by submerging in wells containing 100 nM of different BMP6 family members for 4 minutes. The biosensors were washed in HBS-EBHT buffer in between every step of the experiment. At the end of each cycle, the Protein A biosensor was regenerated using three alternate 5 second dips in 10 mM Glycine pH 2.0 and 10 second dip HBS-EBHT buffer. The real-time binding response was monitored during the course of the experiment and the binding response at the end of every step was recorded and tabulated as shown in Tables 8A and 8B.

Human BMP3b = molecular target: T2, Human BMP3b (human, UniProt P55107 369-478, limits assumed); assay: as above
T2 sequence (looked up): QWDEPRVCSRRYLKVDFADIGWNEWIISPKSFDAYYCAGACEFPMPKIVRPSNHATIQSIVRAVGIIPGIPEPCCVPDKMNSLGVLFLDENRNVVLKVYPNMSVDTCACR
Procedure: as §1

[1] = molecular target: T3, human BMP6 (R&D Systems, Cat #507-BP) (human, UniProt P22004 375-513, limits assumed); assay: SPR (MASS-1), mAb captured on anti-human Fc, hBMP6 in solution, 37 C; calculated with kd fixed at 1.00E-05
T3 construct: Bought protein (R&D Systems 507-BP or 507-BP/CF); also called hBMP6; hBMP-6
T3 sequence: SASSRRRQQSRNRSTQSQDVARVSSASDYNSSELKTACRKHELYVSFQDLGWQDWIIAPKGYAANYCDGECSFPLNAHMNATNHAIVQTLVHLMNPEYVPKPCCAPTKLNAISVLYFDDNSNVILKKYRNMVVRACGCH
Procedure: (§2) Equilibrium dissociation constants (KD values) for human and mouse BMP6 binding to purified anti-BMP6 monoclonal antibodies of this invention were determined using a real-time surface plasmon resonance (SPR) biosensor instrument, MASS-1. All binding studies were performed in 10 mM HEPES, 150 mM NaCl, 3 mM EDTA, 1 μg/mL Heparin, and 0.05% v/v Surfactant Tween-20, pH 7.4 (HBS-EHT) running buffer at 25° C. and 37° C. The HCA sensor surface was first derivatized by amine coupling the monoclonal mouse anti-human Fc antibody (GE, #BR100839) and anti-BMP6 monoclonal antibodies were individually captured. Different concentrations of human BMP6 reagents (hBMP6; R&D Systems, Cat #507-BP; 60 nM-0.94 nM; 4-fold serial dilution) or mouse BMP6 (mBMP6; R&D Systems, Cat #6325-BM; 60 nM and 15 nM) prepared in HBS-EHT running buffer were injected over the captured anti-BMP6 monoclonal antibody for 4 minutes at a flow rate of 30 μL/minute, while the dissociation of BMP6 reagent bound to captured anti-BMP6 monoclonal antibody was monitored for 10 minutes in HBS-EHT running buffer. Kinetic association (kₐ) and dissociation (kd) rate constants were determined by fitting the real-time binding sensorgrams to a 1:1 binding model with mass transport limitation using Scrubber 2.0c software. […]

Human BMP5 = molecular target: T4, Human BMP5 (human, UniProt P22003 317-454, limits assumed); assay: BLI (Octet HTX), mAb captured on Protein A sensor, 100 nM ligand, 25 C
T4 sequence (looked up): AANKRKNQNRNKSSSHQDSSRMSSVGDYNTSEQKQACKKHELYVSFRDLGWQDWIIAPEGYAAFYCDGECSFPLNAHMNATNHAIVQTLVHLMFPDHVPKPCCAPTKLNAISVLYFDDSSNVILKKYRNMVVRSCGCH
Procedure: as §1

Human GDF3 = molecular target: T5, Human GDF3 (human, UniProt Q9NR23 251-364); assay: as above
T5 sequence (looked up): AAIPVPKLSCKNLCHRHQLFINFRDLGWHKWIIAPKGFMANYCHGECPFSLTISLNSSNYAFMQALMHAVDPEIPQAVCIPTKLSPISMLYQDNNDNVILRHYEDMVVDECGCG
Procedure: as §1

[2] = molecular target: T3, human BMP6 (R&D Systems, Cat #507-BP); assay: SPR (MASS-1), mAb captured on anti-human Fc, hBMP6 in solution, 37 C; 37 C
Procedure: as §2

binding response (Human BMP12/GDF7): 0.01 nm | binding response (Human BMP3b): 0.19 nm | Kd [1]: ≤ 0.24 nM | t1/2 [1]: ≥ 19.2 h
B1: H4H17871P (antibody, V domains shown)
VH: EVQLVESGGGLVQPGGSLRLSCAASGFTFNNYAMSWVRQAPGKGLEWVSAISGSGDSTYYADSVKGRFTISRDNSKNTLYLQMNSLRAEDTAVYYCAKRSRSSPFDPWGQGTLVTVSS
VL: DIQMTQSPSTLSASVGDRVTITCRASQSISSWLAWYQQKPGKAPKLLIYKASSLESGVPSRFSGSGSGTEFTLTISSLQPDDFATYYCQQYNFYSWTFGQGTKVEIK
notes: Fully human antibody; also called anti-BMP6 monoclonal antibody; BMP6 antibody of the invention

binding response (Human BMP5): 0.01 nm | binding response (Human GDF3): 0.03 nm | koff [2]: 8.17e-05 s⁻¹
B2: H4H17855P (antibody, V domains shown)
VH: B1 VH with N30S, N31S, D56G, S57R, A61T, I70M, S100P, R101Y, S102N
VL: EIVLTQSPGTLSLSPGEGATLSCRASQSVSSSYLAWYQQKPGQAPRLLIYGASSRATGIPDRFSGSGSGTDFTLTISRLEPEDFVVYYCQHFGGTPFTFGGGTKVEIK
notes: as for B1
